Legend:
MMP-12 = MMP-12 (Homo sapiens, UniProt P39900); assay: Cross-reactivity of anti-MMP-14 IgGs, enzymatic activity: MMP-12; type: biochemical; conditions: 1 μM anti-MMP-14 IgG
Method: (§1) The cross-reactivity of exemplary anti-MMP-14 IgGs and Fabs with other human MMPs and TACE (TNF-alpha converting enzyme) was examined. MMP and TACE enzymatic activity was monitored in the absence and presence of 1 μM anti-MMP-14 IgG antibody. Inhibition (Y) of activity ranged from approximately 50-80% of the reaction rate observed in the absence of antibody. “X” indicates no inhibition was observed. Cross-reactivity was not determined for MMP-17 because protein activity could not be detected.
(§2) For the studies summarized in Table 12, six anti-MMP-14 IgGs were selected for cross-reactivity testings: M0043-G02, M0040-A06, M0037-D01, M037-C09, M0038-F01, M0033-H07.

MMP-2 = target: T1, MMP-2 (Homo sapiens, UniProt P08253); assay: Cross-reactivity of anti-MMP-14 IgGs, enzymatic activity: MMP-2; type: biochemical; conditions: 1 μM anti-MMP-14 IgG
T1 sequence (P08253 110-660): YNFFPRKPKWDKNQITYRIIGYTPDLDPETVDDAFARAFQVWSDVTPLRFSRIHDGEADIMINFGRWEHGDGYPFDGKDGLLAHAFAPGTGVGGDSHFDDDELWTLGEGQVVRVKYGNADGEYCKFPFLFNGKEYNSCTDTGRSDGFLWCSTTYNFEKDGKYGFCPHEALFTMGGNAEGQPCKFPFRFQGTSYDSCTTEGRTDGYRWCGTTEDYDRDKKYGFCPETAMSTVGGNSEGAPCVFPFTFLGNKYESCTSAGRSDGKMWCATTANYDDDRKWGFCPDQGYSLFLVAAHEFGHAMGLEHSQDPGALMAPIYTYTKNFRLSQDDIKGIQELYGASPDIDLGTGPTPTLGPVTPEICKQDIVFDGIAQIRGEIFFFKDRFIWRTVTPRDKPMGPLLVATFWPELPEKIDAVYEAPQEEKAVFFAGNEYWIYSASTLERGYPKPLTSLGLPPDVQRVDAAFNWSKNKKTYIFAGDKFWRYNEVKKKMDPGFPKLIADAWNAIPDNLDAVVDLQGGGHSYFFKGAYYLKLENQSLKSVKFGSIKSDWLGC
Method: as §1, §2

MMP-3 = MMP-3 (Homo sapiens, UniProt P08254); assay: Cross-reactivity of anti-MMP-14 IgGs, enzymatic activity: MMP-3; type: biochemical; conditions: 1 μM anti-MMP-14 IgG
MMP-3, sequence (P08254 100-477): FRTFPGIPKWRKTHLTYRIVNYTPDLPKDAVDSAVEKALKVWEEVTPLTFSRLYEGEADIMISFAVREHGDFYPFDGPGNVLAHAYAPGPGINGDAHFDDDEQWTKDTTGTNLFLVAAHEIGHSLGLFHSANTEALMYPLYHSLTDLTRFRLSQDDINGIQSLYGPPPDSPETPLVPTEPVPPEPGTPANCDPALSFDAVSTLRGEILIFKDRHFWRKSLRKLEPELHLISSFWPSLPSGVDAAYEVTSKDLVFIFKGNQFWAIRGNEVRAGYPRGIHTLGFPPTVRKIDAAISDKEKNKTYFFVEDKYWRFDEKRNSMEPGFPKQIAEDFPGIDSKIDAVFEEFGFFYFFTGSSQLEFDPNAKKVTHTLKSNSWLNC
Method: as §1, §2

MMP-13 = MMP-13 (Homo sapiens, UniProt P45452); assay: Cross-reactivity of anti-MMP-14 IgGs, enzymatic activity: MMP-13; type: biochemical; conditions: 1 μM anti-MMP-14 IgG
Method: as §1, §2

MMP-24 = MMP-24 (Homo sapiens, UniProt Q9Y5R2); assay: Cross-reactivity of anti-MMP-14 IgGs, enzymatic activity: MMP-24; type: biochemical; conditions: 1 μM anti-MMP-14 IgG
MMP-24, sequence (Q9Y5R2 156-645): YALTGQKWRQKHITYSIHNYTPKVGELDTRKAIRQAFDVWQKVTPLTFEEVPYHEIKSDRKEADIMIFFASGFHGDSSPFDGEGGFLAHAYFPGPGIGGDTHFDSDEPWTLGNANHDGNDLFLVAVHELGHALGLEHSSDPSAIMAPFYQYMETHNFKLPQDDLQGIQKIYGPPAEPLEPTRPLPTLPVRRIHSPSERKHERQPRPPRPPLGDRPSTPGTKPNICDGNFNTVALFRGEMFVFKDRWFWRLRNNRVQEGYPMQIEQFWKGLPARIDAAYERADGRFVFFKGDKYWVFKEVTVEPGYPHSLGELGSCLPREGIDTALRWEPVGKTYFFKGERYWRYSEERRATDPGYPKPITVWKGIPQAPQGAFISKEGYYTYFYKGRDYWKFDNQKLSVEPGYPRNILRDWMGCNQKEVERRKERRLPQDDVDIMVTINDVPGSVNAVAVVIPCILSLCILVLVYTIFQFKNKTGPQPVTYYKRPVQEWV
Method: as §1, §2

MMP-9 = MMP-9 (Homo sapiens, UniProt P14780); assay: Cross-reactivity of anti-MMP-14 IgGs, enzymatic activity: MMP-9; type: biochemical; conditions: 1 μM anti-MMP-14 IgG
MMP-9, sequence (P14780 94-707): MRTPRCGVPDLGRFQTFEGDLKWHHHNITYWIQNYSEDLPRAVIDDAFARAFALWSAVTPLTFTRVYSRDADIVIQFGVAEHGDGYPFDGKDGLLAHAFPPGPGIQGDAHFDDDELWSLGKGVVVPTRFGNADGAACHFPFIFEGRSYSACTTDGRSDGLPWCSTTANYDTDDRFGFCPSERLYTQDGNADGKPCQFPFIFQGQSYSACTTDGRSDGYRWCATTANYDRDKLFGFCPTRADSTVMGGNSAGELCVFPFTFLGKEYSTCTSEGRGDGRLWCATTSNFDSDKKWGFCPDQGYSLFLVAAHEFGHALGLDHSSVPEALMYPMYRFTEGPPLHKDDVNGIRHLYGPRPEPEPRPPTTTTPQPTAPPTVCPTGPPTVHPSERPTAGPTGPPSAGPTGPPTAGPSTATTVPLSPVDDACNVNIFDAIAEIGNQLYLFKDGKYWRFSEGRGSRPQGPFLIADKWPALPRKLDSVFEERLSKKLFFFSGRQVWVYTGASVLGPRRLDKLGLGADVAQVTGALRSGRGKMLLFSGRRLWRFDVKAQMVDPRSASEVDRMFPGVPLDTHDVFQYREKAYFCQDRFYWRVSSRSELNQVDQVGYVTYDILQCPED
Method: as §1, §2

MMP-8 = MMP-8 (Homo sapiens, UniProt P22894); assay: Cross-reactivity of anti-MMP-14 IgGs, enzymatic activity: MMP-8; type: biochemical; conditions: 1 μM anti-MMP-14 IgG
MMP-8, sequence (P22894 101-467): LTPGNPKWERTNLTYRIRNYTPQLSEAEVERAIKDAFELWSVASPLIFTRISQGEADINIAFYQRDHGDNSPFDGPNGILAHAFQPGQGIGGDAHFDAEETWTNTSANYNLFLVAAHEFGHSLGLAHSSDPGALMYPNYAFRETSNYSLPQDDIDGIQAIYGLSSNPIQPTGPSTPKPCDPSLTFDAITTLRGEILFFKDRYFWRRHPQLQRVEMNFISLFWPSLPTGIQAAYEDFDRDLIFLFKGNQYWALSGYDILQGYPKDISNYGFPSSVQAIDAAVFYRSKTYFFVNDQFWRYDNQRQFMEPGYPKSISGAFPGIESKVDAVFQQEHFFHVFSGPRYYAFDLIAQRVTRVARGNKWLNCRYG
Method: as §1, §2

MDA-MB-435 GFP tumors = assay: MDA-MB-435 GFP orthotopic breast tumor growth; type: in vivo, mouse; conditions: for Tumor Mass (±SD): excised primary tumor
Excerpt: Fragments of MDA-MB-435 GFP (MDA-MB-435 cells expressing green fluorescent protein) tumors were transplanted by surgical orthotopic implantation (SOI) into the right second mammary gland. Treatment was started on day 15 after SOI when the volume of primary tumors reached about 85 mm^3.
Mice were sacrificed at day 61 after the start of the treatment and tumors (primary and metastases) were identified by fluorescent imaging. Additionally, primary tumors were excised and weighed. […] However, M0038-F01 was not effective in reducing lymph node or lung metastases in this experiment.

B16F1 melanoma tumors = assay: B16F1 melanoma subcutaneous tumor growth; type: in vivo, mouse; conditions: M0038-F01 10, 1 or 0.1 mg/kg Q2d IP; doxorubicin 5 mg/kg weekly IP
Excerpt: B16F1 melanoma cells were implanted into Female C57/BL6 (CR) mice (4-6 Weeks old) mice by subcutaneous injection.

[1] = system: BT747 breast cancer tumor fragments; assay: BT747 breast tumor growth; type: in vivo, mouse; conditions: small initial tumor size groups; M0038-F01 10, 1 or 0.1 mg/kg Q2d IP; trastuzumab 20 mg/kg
Method: Fragments (approximately 1 mm^3) of BT747 breast cancer tumor fragments were implanted into the flanks of female HRLN CB.17 SCID mice. […] All groups were dosed by intraperitoneal (IP) injection. Tumor volume was measured biweekly.

MMP14 = target: T2, MMP14 (Mus musculus, UniProt P53690); assay: Immunohistochemical staining in acute phase SCW-induced arthritis; conditions: 7 days after first injection of SCW
T2 construct: from tissue; host or cells: knee joints of C57Bl6 mice with SCW-induced arthritis (synovial cells, chondrocytes, macrophages)
Method: Antigen-induced arthritis, a model of rheumatoid arthritis, was induced by intraarticular injection of Streptococcus cell wall (SCW, […]) into the knee joints of C57B16 mice at day 0, 7, 14 and 21.
MMP14 expression in acute phase SCW-induced arthritis (7 days after the first injection of SCW) was examined by immunohistochemical staining using M0038-F01.

MDA-MB-231-GFP tumors = assay: MDA-MB-231-GFP orthotopic breast tumor growth and metastasis
Method: Human breast cancer cells MDA-MB-231 cells transfected with green fluorescent protein (MDA-MB-231-GFP) were inoculated into the mammary fat pad of female BALB/c nu/nu mice with Matrigel. Animals were monitored for tumor growth, and at week 4-5 post tumor cell inoculation, animals with tumors of 30-50 mm^3 were selected, randomized and divided into experimental groups. […] Tumor volume was measured weekly, starting at week 5. Additionally, tissue samples of lung, liver, and spleen were taken to assess metastasis.
Animals were inoculated with MDA-MB-231-GFP cells as described above, then selected and randomized, and divided into experimental groups of 8 animals each. […] Tumor volume was measured weekly, starting at week 5.
Tumor tissue samples were collected on day 35 post-treatment for immunohistochemical analysis. Paraffin-embedded tissue samples were sectioned, stained with CD31 (Santa Cruz Biotechnology Inc., Santa Cruz, Calif., USA), Ki-67 (DAKO, Carpinteria, Calif., USA), MAPK, FAK, phosphoMAPK or phosphoFAK antibodies, visualized with biotinylated secondary antibodies using a VECTASTAIN® ABC (Vector Laboratories Inc., Burlingame, Calif., USA), and lightly counterstained with haemotoxylin.

PC3 prostate tumors = assay: PC3 prostate tumor growth; type: in vivo, mouse; conditions: M0038-F01 10, 1 or 0.1 mg/kg Q2d IP; taxotere 10 mg/kg weekly IP; A2 10 mg/kg Q2d
Excerpt: PC3 prostate cancer cells were implanted into male nude mice by subcutaneous injection.

[2] = system: Human umbilical vascular endothelium cells (HUVECs); assay: HUVEC tube formation on […]; type: cell-based; conditions: 1 nM to 250 nM; 18 hours
Method: Human umbilical vascular endothelium cells (HUVECs) were seeded into […]™ basement membrane extract-coated 96 well plates at 20,000 or 40,000 cells in 100 μl/well. The seeded cells were incubated for 30 minutes, then the various test articles were added (vehicle control, M0038-F01 at concentrations ranging from 1 nM to 250 nM, or suramin 8 mg/ml). The cells were incubated at 37° for 18 hours. 100 μl of calcein solution (8 μg/ml) was added 20 minutes prior to image capture. Tube lengths were also quantified.

[3] = immunostaining of tumor tissue, day 35

MMP-12, sequence (P39900 106-470): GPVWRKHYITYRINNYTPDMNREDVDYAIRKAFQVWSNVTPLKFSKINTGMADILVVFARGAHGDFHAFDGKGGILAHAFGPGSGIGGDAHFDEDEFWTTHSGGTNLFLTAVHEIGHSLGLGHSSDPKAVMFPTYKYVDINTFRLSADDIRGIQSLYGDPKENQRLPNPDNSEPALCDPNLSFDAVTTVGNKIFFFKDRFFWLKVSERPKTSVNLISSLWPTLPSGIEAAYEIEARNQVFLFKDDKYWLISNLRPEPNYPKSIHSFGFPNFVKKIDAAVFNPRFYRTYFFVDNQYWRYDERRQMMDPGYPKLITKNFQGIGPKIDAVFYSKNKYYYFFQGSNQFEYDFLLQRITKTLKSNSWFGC

B1: M0040-A06: human antibody (Fab, IgG) that binds and inhibits MMP-14; HC SEQ ID NO: 162, LC SEQ ID NO: 163 (antibody, V domains shown)
VH: EVQLLESGGGLVQPGGSLRLSCAASGFTFSYYGMYWVRQAPGKGLEWVSSISSSGGYTDYADSVKGRFTISRDNSKNTLYLQMNSLRAEDTAVYYCARRIKYYDIEGEGAFDIWGQGTMVTVSS
VL: QDIVMTQTPPSLPVNPGEPASISCRSSQSLLHRNGYNYLDWYLQKPGQSPQLLIHLGSYRASGVPDRFSGSGSGTDFTLKISRVEAEDVGVYYCMQPLQTPFTFGPGTKVDIK
modifications: Synthetically generated peptide
How did the “Cross reactivity: inhibition of MMP-12 activity” value (MMP-12) turn out when B1 was run?
The value was “Y (Inhibition (Y) of activity ranged from approximately 50-80% of the reaction rate observed in the absence of antibody)”.

What about the “Cross reactivity: inhibition of MMP-2 activity” value (MMP-2) of the same molecule?
Its value is “Y (Inhibition (Y) of activity ranged from approximately 50-80% of the reaction rate observed in the absence of antibody)”.

And the “Cross reactivity: inhibition of MMP-3 activity” value (MMP-3)?
Its value is “Y (Inhibition (Y) of activity ranged from approximately 50-80% of the reaction rate observed in the absence of antibody)”.

And the “Cross reactivity: inhibition of MMP-13 activity” value (MMP-13)?
The value was “Y (Inhibition (Y) of activity ranged from approximately 50-80% of the reaction rate observed in the absence of antibody)”.

And the “Cross reactivity: inhibition of MMP-24 activity” value (MMP-24)?
Its value is “Y (Inhibition (Y) of activity ranged from approximately 50-80% of the reaction rate observed in the absence of antibody)”.

And the “Cross reactivity: inhibition of MMP-9 activity” value (MMP-9)?
Its value is “Y (Inhibition (Y) of activity ranged from approximately 50-80% of the reaction rate observed in the absence of antibody)”.

What about the “Cross reactivity: inhibition of MMP-8 activity” value (MMP-8) of the same molecule?
The value was “Y (Inhibition (Y) of activity ranged from approximately 50-80% of the reaction rate observed in the absence of antibody)”.

B2: M0043-G02: human antibody (Fab, IgG) that binds and inhibits MMP-14; HC SEQ ID NO: 166, LC SEQ ID NO: 167 (antibody, V domains shown)
VH: EVQLLESGGGLVQPGGSLRLSCAASGFTFSWYPMFWVRQAPGKGLEWVSGIYSSGGPTDYADSVKGRFTISRDNSKNTLYLQMNSLRAEDTAVYYCAKDTLGRYYDFWSGYSYGMDVWGQGTTVTVSS
VL: QDIQMTQSPGTLSLSPGERATLSCRASQSVSSSYLAWYQQKPGQAPRLLIYGASSRATGIPDRFSGSGSGTDFTLTISRLEPEDFAVYYCQSGVTFGGGTKVEIK
modifications: Synthetically generated peptide
B2 was tested. Which “Cross reactivity: inhibition of MMP-12 activity” value (MMP-12) did it give?
Its value is “Y (Inhibition (Y) of activity ranged from approximately 50-80% of the reaction rate observed in the absence of antibody)”.

And the “Cross reactivity: inhibition of MMP-2 activity” value (MMP-2)?
Its value is “Y (Inhibition (Y) of activity ranged from approximately 50-80% of the reaction rate observed in the absence of antibody)”.

And the “Cross reactivity: inhibition of MMP-13 activity” value (MMP-13)?
Its value is “Y (Inhibition (Y) of activity ranged from approximately 50-80% of the reaction rate observed in the absence of antibody)”.

What about the “Cross reactivity: inhibition of MMP-24 activity” value (MMP-24) of the same molecule?
Its value is “Y (Inhibition (Y) of activity ranged from approximately 50-80% of the reaction rate observed in the absence of antibody)”.

What about the “Cross reactivity: inhibition of MMP-9 activity” value (MMP-9) of the same molecule?
Its value is “Y (Inhibition (Y) of activity ranged from approximately 50-80% of the reaction rate observed in the absence of antibody)”.

B3: M0038-F01: human antibody (Fab, IgG) that binds and inhibits MMP-14; HC SEQ ID NO: 156, LC SEQ ID NO: 157 (antibody, V domains shown)
VH: EVQLLESGGGLVQPGGSLRLSCAASGFTFSLYSMNWVRQAPGKGLEWVSSIYSSGGSTLYADSVKGRFTISRDNSKNTLYLQMNSLRAEDTAVYYCARGRAFDIWGQGTMVTVSS
VL: QDIQMTQSPSSLSAFVGDKVTITCRASQSVGTYLNWYQQKAGKAPELLIYATSNLRSGVPSRFSGSGSGTDFTLTINTLQPEDFATYYCQQSYSIPRFTFGPGTKVDIK
modifications: Synthetically generated peptide
How did the “Tumor Mass (±SD)” value (MDA-MB-435 GFP tumors; 0.1 mg/kg Q2d IP, day 61) turn out when B3 was run?
The value was 1.54 ± 0.91.

What about the “Tumor Mass (±SD)” value (MDA-MB-435 GFP tumors; 1 mg/kg Q2d IP, day 61, * p≦0.05 compared to Control) of the same molecule?
Its value is 0.86 ± 0.21*.

What about the “Tumor Mass (±SD)” value (MDA-MB-435 GFP tumors; 10 mg/kg (F01 and A2 Q2d IP; taxotere QW×3 i.v.), day 61, * p≦0.05 compared to Control) of the same molecule?
The value was 0.82 ± 0.35*.

And the tumor volume (MDA-MB-435 GFP tumors; M0038-F01 1 or 10 mg/kg Q2d IP, taxotere 10 mg/kg QW×3 i.v.)?
Its tumor volume is “reduction of tumor volume”.

And the “lymph node or lung metastases” value (MDA-MB-435 GFP tumors; fluorescent imaging, day 61)?
The value was “not effective”.

What about the tumor growth (B16F1 melanoma tumors) of the same molecule?
The tumor growth was “effective in reducing tumor growth”.

And the tumor growth [1]?
The tumor growth was “inhibition of tumor growth”.

What about the “immunohistochemical staining of joint tissue” value (MMP14) of the same molecule?
Its value is “strongly stained synovial cells and chondrocytes, as well as macrophages in joint exudate”.

And the metastases to spleen (MDA-MB-231-GFP tumors; M0038-F01 10 mg/kg Q2d IP, DOX 5 mg/kg weekly IP)?
The metastases to spleen was “reduced in DOX and M0038-F01 treated animals, but the difference was not statistically significant”.

What about the “lung and liver metastases” value (MDA-MB-231-GFP tumors; M0038-F01 10 mg/kg Q2d IP, DOX 5 mg/kg weekly IP, compared to controls) of the same molecule?
Its value is “statistically significant reduction”.

What about the “tumor growth (tumor volume), dose-ranging experiment” value (MDA-MB-231-GFP tumors; M0038-F01 0.1, 1 or 10 mg/kg Q2d IP for 5 weeks, A2 10 mg/kg) of the same molecule?
The value was “reduced in all M0038-F01 treated animals, with the 10 mg/kg dose being most effective, followed by the 1 mg/kg and 0.1 mg/kg doses”.

And the “tumor growth (tumor volume)” value (MDA-MB-231-GFP tumors; M0038-F01 or A2 10 mg/kg Q2d IP, DOX 5 mg/kg weekly IP, five weeks)?
The value was “substantially inhibited”.

And the “CD31 and KI67 levels compared to vehicle and A2 controls” value (MDA-MB-231-GFP tumors; [3])?
The value was “statistically significant (p<0.05) reductions”.

What about the phospho-FAK level (MDA-MB-231-GFP tumors; [3]) of the same molecule?
Its phospho-FAK level is 4±1.2 A.U.

What about the phospho-MAP kinase level (MDA-MB-231-GFP tumors; [3]) of the same molecule?
The phospho-MAP kinase level was 2.4±0.7 A.U.

What about the “total MAP kinase and FAK levels” value (MDA-MB-231-GFP tumors; immunostaining of tumor tissue, day 35, versus control tumors) of the same molecule?
Its value is “essentially the same as in control tumors”.

And the Ki67 (MDA-MB-231-GFP tumors; immunostaining of tumor tissue, day 35 post-treatment, image analysis)?
Its Ki67 is 2.4 ± 1.2.

And the “tumor growth (tumor volume)” value (PC3 prostate tumors)?
Its value is “reduced in all M0038-F01 treated animals, with the 10 mg/kg dose being most effective, followed by the 1 mg/kg and 0.1 mg/kg doses”.

What about the tube formation [2] of the same molecule?
The tube formation was “dose-dependently inhibits tube formation”.
